Source: patent US20260242478A1 (published 2026)
Where no end group is shown, it is not given here.

Legend:
PSMA Fab [1] = biological target: T1, PSMA Fab; experiment: clonal phage ELISA; biotinylated PSMA Fab on neutravidin plate; anti-M13 HRP detection
T1 construct: also called Anti-PSMA Fab; 006 PSMA Fab
Description: (§1) Clonal phage were harvested as crude supernatants and screened via standard ELISAs. […] Prior to the addition of clonal phage. wells were incubated with blocking buffer and PSMA antigen or blocking buffer alone. Without washing or aspirating, clonal phage supernatants were then added to the wells and incubated for a short time. Wells were then washed followed by detection of bound phage using a horse radish conjugated anti-M13 antibody.

PSMA Fab [2] = biological target: T1, PSMA Fab; experiment: clonal phage ELISA; biotinylated PSMA Fab on neutravidin plate, wells pre-incubated with PSMA antigen as competitor; anti-M13 HRP detection;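 also: crude clonal phage supernatants added to antigen-treated wells without a wash, incubated briefly, then bound phage read out via horse radish–conjugated anti-M13 antibody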
Description: as §1

PSMA Fab [3] = biological target: T2, PSMA Fab (biotinylated (site not stated)); experiment: phage ELISA on captured PSMA Fab pre-incubated with PSMA antigen as competitor, anti-M13-HRP detection
T2 construct: also called Anti-PSMA Fab; 006 PSMA Fab

PSMA Fab [4] = biological target: T2, PSMA Fab; experiment: phage ELISA: clonal phage on biotinylated PSMA Fab captured on neutravidin, anti-M13-HRP detection, blocking buffer alone
Description: as §1

PSMA Fab [5] = biological target: T3, PSMA Fab; experiment: clonal phage ELISA on biotinylated PSMA Fab captured on neutravidin, anti-M13 HRP detection, blocking buffer alone
T3 construct: In the panning ELISA the PSMA Fab was biotinylated and captured on neutravidin coated plates; also called Anti-PSMA Fab; 006 PSMA Fab
Description: as §1

PSMA Fab [6] = biological target: T3, PSMA Fab; experiment: clonal phage ELISA on biotinylated PSMA Fab captured on neutravidin, anti-M13 HRP detection, wells pre-incubated with saturating PSMA antigen as competitor
Description: as §1

PSMA Fab (006 PSMA Fab) [7] = biological target: T4, PSMA Fab (006 PSMA Fab) (biotinylated for capture on neutravidin plates (site not stated)); experiment: phage ELISA as above, wells pre-incubated with PSMA antigen as competitor
T4 construct: also called Anti-PSMA Fab; anti-PSMA Fab

PSMA Fab (006 PSMA Fab) [8] = biological target: T4, PSMA Fab (006 PSMA Fab); experiment: phage ELISA: clonal phage supernatant on biotinylated PSMA Fab captured on neutravidin plate, anti-M13-HRP detection
Description: as §1

Row | Binder | Phage binding ELISA signal, Anti-PSMA Fab with PSMA antigen (PSMA Fab [3]) | Phage binding ELISA signal, Anti-PSMA Fab (PSMA Fab [4]) | Phage binding ELISA signal, Anti-PSMA Fab in presence of PSMA (PSMA Fab (006 PSMA Fab) [7]) | Phage binding ELISA signal, Anti-PSMA Fab (PSMA Fab (006 PSMA Fab) [8]) | other results
1 | EENFCVPKWMCEGF [Phage-3264] |  |  |  |  | Phage binding ELISA signal, Anti-PSMA Fab (PSMA Fab [1]): 1.91; Phage binding ELISA signal, Anti-PSMA Fab in presence of PSMA (PSMA Fab [2]): 0.126
2 | FFKMCIPEWMCSGF [Phage-3263] |  |  |  |  | Phage binding ELISA signal, Anti-PSMA Fab (PSMA Fab [1]): 1.91; Phage binding ELISA signal, Anti-PSMA Fab in presence of PSMA (PSMA Fab [2]): 0.205
3 | YEMRCVPDWMCVGL (Peptide-180 library clone, tested as clonal phage supernatant with the peptide fused to pIII) [Phage-3292] | 0.0906 | 1.89 |  |  | 
4 | PIPRCQPLWMCHGF (Peptide-180 library clone, tested as clonal phage supernatant with the peptide fused to pIII) [Phage-3291] | 0.085 | 1.89 |  |  | 
5 | LLEMCKPHWMCVGF [Phage-3314] |  |  |  |  | Phage binding ELISA signal, Anti-PSMA Fab (PSMA Fab [5]): 1.86; Phage binding ELISA signal, Anti-PSMA Fab with PSMA antigen (PSMA Fab [6]): 0.085
6 | VERMCKPEWMCFGF (Peptide-180 library clone, tested as clonal phage supernatant with the peptide fused to pIII of the bacteriophage) [Phage-3281] | 0.102 | 1.9 |  |  | 
7 | ELQRCIPQWMCVGL (Peptide-180 library clone, tested as clonal phage supernatant with the peptide fused to pIII) [Phage-3284] | 0.0731 | 1.89 |  |  | 
8 | GEPWCIPSWMCQGF (Peptide-180 library clone, tested as clonal M13 phage displaying the peptide fused to pIII) [Phage-3279] |  |  | 0.091 | 1.9 | 
9 | GGVLCQPAWMCIGF (Peptide-180 library clone, tested as clonal M13 phage displaying the peptide fused to pIII) [Phage-3271] |  |  | 0.0804 | 1.9 | 
10 | VERACVPAWMCTGF [Phage-3309] |  |  |  |  | Phage binding ELISA signal, Anti-PSMA Fab (PSMA Fab [5]): 1.87; Phage binding ELISA signal, Anti-PSMA Fab with PSMA antigen (PSMA Fab [6]): 0.0832
11 | ISPRCEPLWMCTGL (Peptide-180 library clone, tested as clonal M13 phage displaying the peptide fused to pIII) [Phage-3269] |  |  | 0.0836 | 1.91 | 
12 | SSVMCIPQWMCSGF [Phage-3317] |  |  |  |  | Phage binding ELISA signal, Anti-PSMA Fab (PSMA Fab [5]): 1.86; Phage binding ELISA signal, Anti-PSMA Fab with PSMA antigen (PSMA Fab [6]): 0.0899
13 | MEHWCVPAWMCSGF (Peptide-180 library clone, tested as clonal phage supernatant with the peptide fused to pIII) [Phage-3282] | 0.264 | 1.89 |  |  | 
14 | LQVMCVPRWMCEGF [Phage-3319] |  |  |  |  | Phage binding ELISA signal, Anti-PSMA Fab (PSMA Fab [5]): 1.86; Phage binding ELISA signal, Anti-PSMA Fab with PSMA antigen (PSMA Fab [6]): 0.104
15 | PTLRCEPLWMCAGF (Peptide-180 library clone, tested as clonal phage supernatant with the peptide fused to pIII) [Phage-3286] | 0.0911 | 1.89 |  |  | 
16 | LPYMCTPIWMCIGF (Peptide-180 library clone, tested as clonal M13 phage displaying the peptide fused to pIII) [Phage-3267] |  |  | 0.143 | 1.91 | 
17 | FDRICKPAWMCIEF (Peptide-180 library clone, tested as clonal M13 phage displaying the peptide fused to pIII) [Phage-3275] |  |  | 0.0573 | 1.9 | 
18 | EYQVCKPTWMCTGF [Phage-3266] |  |  |  |  | Phage binding ELISA signal, Anti-PSMA Fab (PSMA Fab [1]): 1.91; Phage binding ELISA signal, Anti-PSMA Fab in presence of PSMA (PSMA Fab [2]): 0.0904
19 | WNHVCIPTWMCTGM (Peptide-180 library clone, tested as clonal M13 phage displaying the peptide fused to pIII) [Phage-3280] |  |  | 0.0817 | 1.9 | 
20 | LDPMCVPSWMCWGF (Peptide-180 library clone, tested as clonal M13 phage displaying the peptide fused to pIII) [Phage-3270] |  |  | 0.0992 | 1.9 | 
21 | PARMCVPAWMCSVL (Peptide-180 library clone, tested as clonal M13 phage displaying the peptide fused to pIII) [Phage-3277] |  |  | 0.0732 | 1.9 | 
22 | SMGLCKPPWMCAGF (not fully specified; cysteine pairing not given here, Peptide-180 library clone, tested as clonal M13 phage displaying the peptide fused to pIII) [Phage-3273] |  |  | 0.0756 | 1.9 | 
23 | EIMLCKPEWMCYGF [Phage-3265] |  |  |  |  | Phage binding ELISA signal, Anti-PSMA Fab (PSMA Fab [1]): 1.91; Phage binding ELISA signal, Anti-PSMA Fab in presence of PSMA (PSMA Fab [2]): 0.0998

Row | Binder | Phage binding ELISA signal, Anti-PSMA Fab with PSMA antigen (PSMA Fab [3]) | Phage binding ELISA signal, Anti-PSMA Fab (PSMA Fab [4]) | Phage binding ELISA signal, Anti-PSMA Fab in presence of PSMA (PSMA Fab (006 PSMA Fab) [7]) | Phage binding ELISA signal, Anti-PSMA Fab (PSMA Fab (006 PSMA Fab) [8]) | other results
24 | MDVLCRPEWMCTGF (Peptide-180 library clone, tested as clonal phage supernatant with the peptide fused to pIII) [Phage-3290] | 0.0971 | 1.89 |  |  | 
25 | QEFRCVPEWMCIGL [Phage-3316] |  |  |  |  | Phage binding ELISA signal, Anti-PSMA Fab (PSMA Fab [5]): 1.86; Phage binding ELISA signal, Anti-PSMA Fab with PSMA antigen (PSMA Fab [6]): 0.0577
26 | VEVKCVPEWMCTGF (Peptide-180 library clone, tested as clonal M13 phage displaying the peptide fused to pIII) [Phage-3268] |  |  | 0.0868 | 1.91 | 
27 | DLRWCIPEWMCIGI [Phage-3312] |  |  |  |  | Phage binding ELISA signal, Anti-PSMA Fab (PSMA Fab [5]): 1.86; Phage binding ELISA signal, Anti-PSMA Fab with PSMA antigen (PSMA Fab [6]): 0.0809
28 | IEKLCKPQWMCEGF [Phage-3310] |  |  |  |  | Phage binding ELISA signal, Anti-PSMA Fab (PSMA Fab [5]): 1.87; Phage binding ELISA signal, Anti-PSMA Fab with PSMA antigen (PSMA Fab [6]): 0.129
29 | LEFRCVPEWMCVGF [Phage-3311] |  |  |  |  | Phage binding ELISA signal, Anti-PSMA Fab (PSMA Fab [5]): 1.87; Phage binding ELISA signal, Anti-PSMA Fab with PSMA antigen (PSMA Fab [6]): 0.111
30 | INAWCIPAWMCEGF (Peptide-180 library clone, tested as clonal M13 phage displaying the peptide fused to pIII) [Phage-3272] |  |  | 0.137 | 1.9 | 
31 | VSIVCVPEWMCSGF [Phage-3262] |  |  |  |  | Phage binding ELISA signal, Anti-PSMA Fab (PSMA Fab [1]): 1.92; Phage binding ELISA signal, Anti-PSMA Fab in presence of PSMA (PSMA Fab [2]): 0.0721
32 | LPPMCIPQWMCMHF (Peptide-180 library clone, tested as clonal M13 phage displaying the peptide fused to pIII) [Phage-3278] |  |  | 0.0592 | 1.9 | 
33 | NWKVCEPTWMCEGF [Phage-3308] |  |  |  |  | Phage binding ELISA signal, Anti-PSMA Fab (PSMA Fab [5]): 1.87; Phage binding ELISA signal, Anti-PSMA Fab with PSMA antigen (PSMA Fab [6]): 0.0575
34 | FDHLCIPVWMCKGF (Peptide-180 library clone, tested as clonal phage supernatant with the peptide fused to pIII) [Phage-3283] | 0.0828 | 1.89 |  |  | 
35 | LPIMCKPQWMCNGF [Phage-3318] |  |  |  |  | Phage binding ELISA signal, Anti-PSMA Fab (PSMA Fab [5]): 1.86; Phage binding ELISA signal, Anti-PSMA Fab with PSMA antigen (PSMA Fab [6]): 0.08
36 | FDTYCKPAWMCEGF (Peptide-180 library clone, tested as clonal phage supernatant with the peptide fused to pIII) [Phage-3285] | 0.0818 | 1.89 |  |  | 
37 | TDVMCVPQWMCDGF (Peptide-180 library clone, tested as clonal phage supernatant with the peptide fused to pIII) [Phage-3294] | 0.106 | 1.89 |  |  | 
38 | EFQMCVPEWMCTGL (Peptide-180 library clone, tested as clonal M13 phage displaying the peptide fused to pIII) [Phage-3276] |  |  | 0.0838 | 1.9 | 
39 | ETLMCIPNWMCDGF (Peptide-180 library clone, tested as clonal phage supernatant with the peptide fused to pIII) [Phage-3293] | 0.0837 | 1.89 |  |  | 
40 | VDAYCKPAWMCLGF (Peptide-180 library clone, tested as clonal phage supernatant with the peptide fused to pIII) [Phage-3288] | 0.0998 | 1.89 |  |  | 
41 | MVVRCEPEWMCIGF (Peptide-180 library clone, tested as clonal M13 phage displaying the peptide fused to pIII) [Phage-3274] |  |  | 0.0649 | 1.9 | 
42 | ESLLCKPKWMCDWL (Peptide-180 library clone, tested as clonal phage supernatant with the peptide fused to pIII) [Phage-3287] | 0.0996 | 1.89 |  |  | 
43 | VEIACKPQWMCLGF [Phage-3315] |  |  |  |  | Phage binding ELISA signal, Anti-PSMA Fab (PSMA Fab [5]): 1.86; Phage binding ELISA signal, Anti-PSMA Fab with PSMA antigen (PSMA Fab [6]): 0.0766
44 | EDYVCRPTWMCVGF (Peptide-180 library clone, tested as clonal phage supernatant with the peptide fused to pIII) [Phage-3289] | 0.0755 | 1.89 |  |  | 
45 | AEHVCRPAWMCTVF [Phage-3313] |  |  |  |  | Phage binding ELISA signal, Anti-PSMA Fab (PSMA Fab [5]): 1.86; Phage binding ELISA signal, Anti-PSMA Fab with PSMA antigen (PSMA Fab [6]): 0.0585
